T1: NLS-pMag-CreC
T1 chain: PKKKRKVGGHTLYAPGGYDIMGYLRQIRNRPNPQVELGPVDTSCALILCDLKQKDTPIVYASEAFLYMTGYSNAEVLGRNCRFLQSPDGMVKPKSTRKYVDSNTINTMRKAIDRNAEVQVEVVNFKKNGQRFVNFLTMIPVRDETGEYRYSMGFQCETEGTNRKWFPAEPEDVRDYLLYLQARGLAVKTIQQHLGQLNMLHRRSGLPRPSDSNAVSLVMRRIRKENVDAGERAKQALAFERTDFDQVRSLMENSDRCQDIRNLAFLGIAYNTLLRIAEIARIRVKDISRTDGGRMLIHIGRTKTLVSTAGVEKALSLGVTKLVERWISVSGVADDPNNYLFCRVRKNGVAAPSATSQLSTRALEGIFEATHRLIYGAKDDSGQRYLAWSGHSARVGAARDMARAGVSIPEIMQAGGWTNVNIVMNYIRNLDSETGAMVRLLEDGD

B1: myc-α-CD38-Receptor (receptor)
chain: SEQKLISEEDLDIQLTQSSSSFSVSLGDRVTITCKASEDIYNRLAWYQQKPGNAPRLLISGATSLETGVPSRFSGSGSGKDYTLSITSLQTEDVATYYCQQYWSTPTFGGGTKLEIKRADAAPTVSIFPPSGGGGSGGGGSGGGGSGGGGSQVQLKQSGPSLVQPSQRLSITCTVSGFSLISYGVHWVRQSPGKGLEWLGVIWRGGSTDYNAAFMSRLSITKDNSKSQVFFKMNSLQADDTAIYFCAKTLITTGYAMDYWGQGTSVTVSSAAAIEVMYPPPYLDNEKSNGTIIHVKGKHLCPSPLFPGPSKPFWVLVVVGGVLACYSLLVTVAFIIFWVRSKRS
notes: Non-signalling anchoring receptor with myc tag, expressed on Jurkat T cells; also called c-myc-tagged α-CD38 Receptor
B2: ERT2-CreN-nMag (other)
chain: MAGDMRAANLWPSPLMIKRSKKNSLALSLTADQMVSALLDAEPPILYSEYDPTRPFSEASMMGLLTNLADRELVHMINWAKRVPGFVDLTLHDQVHLLECAWLEILMIGLVWRSMEHPVKLLFAPNLLLDRNQGKCVEGMVEIFDMLLATSSRFRMMNLQGEEFVCLKSIILLNSGVYTFLSSTLKSLEEKDHIHRVLDKITDTLIHLMAKAGLTLQQQHQRLAQLLLILSHIRHMSNKGMEHLYSMKCKNVVPLYDLLLEAADAHRLHAPTSRGGASVEETDQSHLATAGSTSSHSLQKYYITGEAEGFPATAVDNLLTVHQNLPALPVDATSDEVRKNLMDMFRDRQAFSEHTWKMLLSVCRSWAAWCKLNGTHTLYAPGGYDIMGYLDQIGNRPNPQVELGPVDTSCALILCDLKQKDTPIVYASEAFLYMTGYSNAEVLGRNCRFLQSPDGMVKPKSTRKYVDSNTINTMRKAIDRNAEVQVEVVNFKKNGQRFVNFLTMIPVRDETGEYRYSMGFQCETE

What was measured:
[1] = target: T2, CD38 on CD38+ Toledo Target cells (UniProt P28907 1-300, limits assumed); assay: flow cytometry, Jurkat T cells carrying the receptor with Toledo Target cells
T2 construct: whole, on cells

NLS-pMag-CreC = target: T1, NLS-pMag-CreC; assay: cell-based or functional assay

Binder | binding result [1] | fold increase in recombined TamPA-Cre+ CAR Reporter Jurkat T cells, Light+4-OHT against Dark+4-OHT (NLS-pMag-CreC) [fold]
B1 | binds | 
B2 |  | 27.1
